According to paper PMC10119312, “Structural insights into RNase J that plays an essential role in Mycobacterium tuberculosis RNA metabolism” (Nature Communications, 2023):

Biological target: the molecule itself
Assay: SEC

B1: Mycobacterium tuberculosis RNase J, full-length wild type (enzyme)
chain: MDVDLPPPGPLTSGGLRVTALGGINEIGRNMTVFEHLGRLLIIDCGVLFPGHDEPGVDLILPDMRHVEDRLDDIEALVLTHGHEDHIGAIPFLLKLRPDIPVVGSKFTLALVAEKCREYRITPVFVEVREGQSTRHGVFECEYFAVNHSTPDALAIAVYTGAGTILHTGDIKFDQLPPDGRPTDLPGMSRLGDTGVDLLLCDSTNAEIPGVGPSESEVGPTLHRLIRGADGRVIVACFASNVDRVQQIIDAAVALGRRVSFVGRSMVRNMRVARQLGFLRVADSDLIDIAAAETMAPDQVVLITTGTQGEPMSALSRMSRGEHRSITLTAGDLIVLSSSLIPGNEEAVFGVIDALSKIGARVVTNAQARVHVSGHAYAGELLFLYNGVRPRNVMPVHGTWRMLRANAKLAASTGVPQESILLAENGVSVDLVAGKASISGAVPVGKMFVDGLIAGDVGDITLGERLILSSGFVAVTVVVRRGTGQPLAAPHLHSRGFSEDPKALEPAVRKVEAELESLVAANVTDPIRIAQGVRRTVGKWVGETYRRQPMIVPTVIEV
notes: also called Mtb-RNase J; WT; not shown: 6xHis-sumo, N-terminal, cleaved
- stoichiometry N: 2
